The record followed here is US20150125463A1 (Bristol-Myers Squibb, published 2015).

Changes are numbered by the printed parent chain.

The target in assay [1] is T1, human PD-L1 (on cells or in tissue) (human, UniProt Q9NZQ7 19-290).
T1 construct: whole, on cells; also called hPD-L1; Programmed Death Ligand-1
The assay is described as follows: competition flow cytometry on ES-2 cells: unlabeled Ab titrated, then biotin-12A4 at 0.4 ug/mL, streptavidin-PE. On the technique in general: In flow cytometry, cells or beads pass a laser one at a time.

The target of assay [2] is T1, human PD-L1 (on cells or in tissue). The assay is described as follows: flow cytometry competition on CHO/PD-L1 cells; unlabeled mAb at 10 ug/ml. An excerpt: (§1) Different quantities of the various FITC-conjugated HuMAbs were used due to differences in binding efficiency following labeling, and the optimal amounts of these FITC-conjugated HuMAbs were previously determined by dose-titration analysis of binding to CHO/PD-L1 cells.

Assay [3] addresses T2, human PD-1 (human, UniProt Q15116 25-288).
T2 construct: whole, on cells; also called hPD-1; Programmed Death-1
Kind of assay: flow cytometry on CHO/PD-1 cells pre-incubated with 10 ug/mL hIgG1 control, 2D3 at 0.2 ug/mL, detection with FITC goat anti-hIgG Fc.

The target of assay [4] is T2, human PD-1. Kind of assay: flow cytometry on CHO/PD-1 cells pre-incubated with 10 ug/mL hIgG1 control, 4H1 at 0.2 ug/mL, detection with FITC goat anti-hIgG Fc.
Assay [5] addresses T2, human PD-1. Kind of assay: flow cytometry on CHO/PD-1 cells pre-incubated with hIgG control, FITC-labeled 17D8.
For assay [6], the target named is T2, human PD-1. Kind of assay: flow cytometry on CHO/PD-1 cells pre-incubated with 10 ug/mL hIgG1 control, 7D3 at 0.2 ug/mL, detection with FITC goat anti-hIgG Fc.
Assay [7] deals with T1, human PD-L1 (on cells or in tissue). The assay is described as follows: flow cytometry on CHO/PD-L1 cells pre-incubated with 10 ug/mL hIgG1, FITC-10H10 at 0.27 ug/mL.
Description: as §1

B1: anti-PD-L1 HuMAb 1B12 (antibody, V domains shown)
VH: QVQLVQSGAEVKKPGSSVKVSCKTSGDTFSSYAISWVRQAPGQGLEWMGGIIPIFGRAHYAQKFQGRVTITADESTSTAYMELSSLRSEDTAVYFCARKFHFVSGSPFGMDVWGQGTTVTVSS
VL: not shown
notes: Human mAb
Consider B1, for which the “IC50 (read off the curve)” value in assay [1] is about 0.2 nM.

B2: anti-PD-L1 HuMAb 7H1 (antibody, V domains shown)
VH: B1 VH with D27G, R57K, S77T, F95Y, F100Y, H101D, F102Y
VL: not shown
notes: Human mAb
For the molecule B2, the binding result in assay [2] is listed as “binds”.

B3: anti-PD-1 HuMAb 2D3 (antibody, V domains shown)
VH: QVQLVESGGDVVQPGRSLRLSCAASGLTFTNYGFHWVRQAPGKGLEWVAVIWYDGSKKYYADSVKGRFTISRDNSKNTLYLQMNNLRAEDTAVYYCATGDDYWGQGTLVTVSS
VL: EIVLTQSPATLSLSPGERATLSCRASQSVSSYLAWYQQKPGQAPRLLIYDTSNRATGIPARFSGSGSGTDFTLTISSLEPEDFAVYYCQQRSNWPLTFGGGTKVEIK
notes: Human mAb
In the case of B3, the binding result in assay [3] is recorded as “binds”.

B4: anti-PD-1 HuMAb 4H1 (antibody, V domains shown)
VH: QVYLVESGGGVVQPGRSLRLSCAASGFTFSNYGMHWVRQAPGKGLEWVALIWYDGSNKYYADSVKGRFTISRDNSKNTLYLQMTSLRVEDTAVYYCASNVDHWGQGTLVTVSS
VL: B3 VL with T51A, R91S, L96R, G100Q
notes: Human mAb
Turning to B4, the binding result in assay [4] is “binds”.

B5: anti-PD-L1 HuMAb 3G10 (antibody, V domains shown)
VH: QVQLVQSGAEVKKPGASVKVSCKASGYTFTDYGFSWVRQAPGQGLEWMGWITAYNGNTNYAQKLQGRVTMTTDTSTSTVYMELRSLRSDDTAVYYCARDYFYGMDVWGQGTTVTVSS
VL: B3 VL with A34V, T51A, L96R, G100Q
notes: Human mAb; Used unconjugated and FITC-conjugated
On to B5, for which the “IC50 (read off the curve)” value in assay [1] is about 0.9 nM.

B6: anti-PD-1 HuMAb 17D8 (antibody, V domains shown)
VH: QVQLVESGGDVVQPGGSLRLSCAASGVAFSNYGMHWVRQAPGKGLEWVAVIWYDGSNKYYADSVKGRFTISRDNSKNMLYLQMNSLRAEDTAMYYCARNDDYWGQGTLVTVSS
VL: B3 VL with L47I, T51A
notes: Human mAb; also called FITC-labeled 17D8
Regarding B6, the binding result in assay [5] is “binds”.

B7: anti-PD-1 HuMAb 7D3 (antibody, V domains shown)
VH: B3 VH with D10G, A23T, A24T, L27I, T30S, N31S, I70L, N74D, N85S, A97V
VL: B3 VL with T51A
notes: Human mAb
As for B7, the binding result in assay [6] is reported as “binds”.

B8: anti-PD-L1 HuMAb 10A5 (antibody, V domains shown)
VH: QVQLVQSGAEVKKPGASVKVSCKASGYTFTSYDVHWVRQAPGQRLEWMGWLHADTGITKFSQKFQGRVTITRDTSASTAYMELSSLRSEDTAVYYCARERIQLWFDYWGQGTLVTVSS
VL: DIQMTQSPSSLSASVGDRVTITCRASQGISSWLAWYQQKPEKAPKSLIYAASSLQSGVPSRFSGSGSGTDFTLTISSLQPEDFATYYCQQYNSYPYTFGQGTKLEIK
notes: as for B5
As for B8, the binding result in assay [1] was “binds”.

B9: anti-PD-L1 HuMAb 10H10 (antibody, V domains shown)
VH: EVQLVESGGGLVQPGRSLRLSCAVSGFTFDDYVVHWVRQAPGKGLEWVSGISGNSGNIGYADSVKGRFTISRDNAKNSLYLQMNSLRAEDTALYYCAVPFDYWGQGTLVTVSS
VL: B8 VL
notes: as for B5
As for B9, in assay [7], the binding result is reported as “binds”.
